Assay results: the supplement of paper PMC9112550, “Optimization of the antimicrobial peptide Bac7 by deep mutational scanning” (BMC Biology, 2022)

test system: Escherichia coli TOP10; assay: shrunken log2 fold change of peptide-encoding DNA abundance (4.5 h post-induction vs induction); higher = less antimicrobial activity (less host growth inhibition); conditions: time post-induction: 4.5 h; library: site-saturation at positions 5, 18, 19, 20
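Note: peptides expressed intracellularly from a pBAD plasmid library in pooled LB shake-flask culture, induced with 0.3% L-arabinose, DNA abundance read by NGS, three biological replicates, DESeq2 with apeglm shrinkage.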

Row | Sequence | shrunken log2 fold change
1 | RRIRGRPPRLPRPRPRPAWCPRP | 0.822
2 | RRIRGRPPRLPRPRPRPAWKPRP | 0.122
3 | RRIRGRPPRLPRPRPRPAWPPRP | 0.892
4 | RRIRGRPPRLPRPRPRPAWQPRP | 0.395
5 | RRIRGRPPRLPRPRPRPAWWPRP | 1.39
6 | RRIRGRPPRLPRPRPRPAYDPRP | 0.326
7 | RRIRGRPPRLPRPRPRPAYFPRP | 0.235
8 | RRIRGRPPRLPRPRPRPCAEPRP | 1.91
9 | RRIRGRPPRLPRPRPRPCCCPRP | 0.946
10 | RRIRGRPPRLPRPRPRPCDQPRP | -0.0239
11 | RRIRGRPPRLPRPRPRPCEGPRP | 0.364
12 | RRIRGRPPRLPRPRPRPCEHPRP | 0.149
13 | RRIRGRPPRLPRPRPRPCENPRP | 0.136
14 | RRIRGRPPRLPRPRPRPCESPRP | 0.169
15 | RRIRGRPPRLPRPRPRPCKVPRP | 0.00141
16 | RRIRGRPPRLPRPRPRPCLGPRP | 0.0741
17 | RRIRGRPPRLPRPRPRPCMFPRP | 0.797
18 | RRIRGRPPRLPRPRPRPCMSPRP | 0.151
19 | RRIRGRPPRLPRPRPRPCNLPRP | -0.0958
20 | RRIRGRPPRLPRPRPRPCPEPRP | -0.0446
21 | RRIRGRPPRLPRPRPRPCRSPRP | -0.0741
22 | RRIRGRPPRLPRPRPRPCSGPRP | -0.111
23 | RRIRGRPPRLPRPRPRPCSRPRP | 0.0838
24 | RRIRGRPPRLPRPRPRPCTHPRP | -0.0414
25 | RRIRGRPPRLPRPRPRPCTKPRP | 0.235

Row | Sequence | shrunken log2 fold change
26 | RRIRGRPPRLPRPRPRPCTMPRP | -0.063
27 | RRIRGRPPRLPRPRPRPCTYPRP | 0.00971
28 | RRIRGRPPRLPRPRPRPCVAPRP | 1.1
29 | RRIRGRPPRLPRPRPRPCVEPRP | 0.953
30 | RRIRGRPPRLPRPRPRPCVHPRP | 0.107
31 | RRIRGRPPRLPRPRPRPCVRPRP | 0.079
32 | RRIRGRPPRLPRPRPRPCWMPRP | 0.301
33 | RRIRGRPPRLPRPRPRPCYHPRP | -0.345
34 | RRIRGRPPRLPRPRPRPCYIPRP | 0.0972
35 | RRIRGRPPRLPRPRPRPCYLPRP | -0.177
36 | RRIRGRPPRLPRPRPRPDDCPRP | 0.152
37 | RRIRGRPPRLPRPRPRPDDPPRP | 0.0369
38 | RRIRGRPPRLPRPRPRPDEKPRP | 0.233
39 | RRIRGRPPRLPRPRPRPDGAPRP | 1.03
40 | RRIRGRPPRLPRPRPRPDGNPRP | 0.276
41 | RRIRGRPPRLPRPRPRPDGRPRP | 0.169
42 | RRIRGRPPRLPRPRPRPDKHPRP | 0.0564
43 | RRIRGRPPRLPRPRPRPDLKPRP | 0.0305
44 | RRIRGRPPRLPRPRPRPDMCPRP | 1.27
45 | RRIRGRPPRLPRPRPRPDMGPRP | 0.269
46 | RRIRGRPPRLPRPRPRPDMRPRP | 1.36
47 | RRIRGRPPRLPRPRPRPDNCPRP | -0.0626
48 | RRIRGRPPRLPRPRPRPDPIPRP | 0.126
49 | RRIRGRPPRLPRPRPRPDPSPRP | 0.414
50 | RRIRGRPPRLPRPRPRPDREPRP | 0.34

Row | Sequence | shrunken log2 fold change
51 | RRIRGRPPRLPRPRPRPDSAPRP | 0.525
52 | RRIRGRPPRLPRPRPRPDSLPRP | -0.0456
53 | RRIRGRPPRLPRPRPRPDVRPRP | 0.0237
54 | RRIRGRPPRLPRPRPRPDWGPRP | 0.242
55 | RRIRGRPPRLPRPRPRPDWIPRP | 0.243
56 | RRIRGRPPRLPRPRPRPDYFPRP | -0.0114
57 | RRIRGRPPRLPRPRPRPEASPRP | 0.708
58 | RRIRGRPPRLPRPRPRPECQPRP | 0.381
59 | RRIRGRPPRLPRPRPRPEEDPRP | -0.0499
60 | RRIRGRPPRLPRPRPRPEHDPRP | 0.835
61 | RRIRGRPPRLPRPRPRPEIRPRP | 0.122
62 | RRIRGRPPRLPRPRPRPELHPRP | 1.04
63 | RRIRGRPPRLPRPRPRPELPPRP | 1.33
64 | RRIRGRPPRLPRPRPRPEMEPRP | -0.0341
65 | RRIRGRPPRLPRPRPRPEMHPRP | 0.242
66 | RRIRGRPPRLPRPRPRPEPYPRP | 0.141
67 | RRIRGRPPRLPRPRPRPEQKPRP | 0.105
68 | RRIRGRPPRLPRPRPRPEQTPRP | 0.388
69 | RRIRGRPPRLPRPRPRPERRPRP | 0.277
70 | RRIRGRPPRLPRPRPRPESVPRP | 1.42
71 | RRIRGRPPRLPRPRPRPETHPRP | 2.22
72 | RRIRGRPPRLPRPRPRPETPPRP | 3.43
73 | RRIRGRPPRLPRPRPRPETTPRP | 2.32
74 | RRIRGRPPRLPRPRPRPETWPRP | 1.28
75 | RRIRGRPPRLPRPRPRPEVIPRP | 0.073

Row | Sequence | shrunken log2 fold change
76 | RRIRGRPPRLPRPRPRPEVLPRP | 1.83
77 | RRIRGRPPRLPRPRPRPEVTPRP | 0.168
78 | RRIRGRPPRLPRPRPRPEWFPRP | 0.683
79 | RRIRGRPPRLPRPRPRPEYLPRP | 0.468
80 | RRIRGRPPRLPRPRPRPEYPPRP | 0.77
81 | RRIRGRPPRLPRPRPRPEYSPRP | 0.445
82 | RRIRGRPPRLPRPRPRPEYYPRP | 0.166
83 | RRIRGRPPRLPRPRPRPFANPRP | 0.0848
84 | RRIRGRPPRLPRPRPRPFCVPRP | 0.392
85 | RRIRGRPPRLPRPRPRPFDQPRP | 0.2
86 | RRIRGRPPRLPRPRPRPFEDPRP | 0.392
87 | RRIRGRPPRLPRPRPRPFEFPRP | -0.157
88 | RRIRGRPPRLPRPRPRPFESPRP | 0.0306
89 | RRIRGRPPRLPRPRPRPFHPPRP | -0.124
90 | RRIRGRPPRLPRPRPRPFIAPRP | 0.245
91 | RRIRGRPPRLPRPRPRPFIWPRP | 0.351
92 | RRIRGRPPRLPRPRPRPFKAPRP | 0.2
93 | RRIRGRPPRLPRPRPRPFMAPRP | 0.211
94 | RRIRGRPPRLPRPRPRPFMNPRP | -0.116
95 | RRIRGRPPRLPRPRPRPFMRPRP | 0.567
96 | RRIRGRPPRLPRPRPRPFMSPRP | -0.192
97 | RRIRGRPPRLPRPRPRPFMVPRP | -0.131
98 | RRIRGRPPRLPRPRPRPFPFPRP | -0.0622
99 | RRIRGRPPRLPRPRPRPFQHPRP | -0.0674
100 | RRIRGRPPRLPRPRPRPFQKPRP | -0.0668

Row | Sequence | shrunken log2 fold change
101 | RRIRGRPPRLPRPRPRPFRIPRP | -0.212
102 | RRIRGRPPRLPRPRPRPFRPPRP | 0.021
103 | RRIRGRPPRLPRPRPRPFSFPRP | 0.268
104 | RRIRGRPPRLPRPRPRPFTEPRP | 0.104
105 | RRIRGRPPRLPRPRPRPFYPPRP | -0.62
106 | RRIRGRPPRLPRPRPRPGADPRP | 1.48
107 | RRIRGRPPRLPRPRPRPGARPRP | 0.953
108 | RRIRGRPPRLPRPRPRPGDPPRP | 0.779
109 | RRIRGRPPRLPRPRPRPGDSPRP | 0.276
110 | RRIRGRPPRLPRPRPRPGEAPRP | 1.48
111 | RRIRGRPPRLPRPRPRPGEIPRP | 0.727
112 | RRIRGRPPRLPRPRPRPGEKPRP | 1.4
113 | RRIRGRPPRLPRPRPRPGEMPRP | 1.31
114 | RRIRGRPPRLPRPRPRPGEYPRP | 0.3
115 | RRIRGRPPRLPRPRPRPGFGPRP | 0.649
116 | RRIRGRPPRLPRPRPRPGFRPRP | 0.399
117 | RRIRGRPPRLPRPRPRPGGDPRP | 0.937
118 | RRIRGRPPRLPRPRPRPGGHPRP | 0.779
119 | RRIRGRPPRLPRPRPRPGGIPRP | 0.402
120 | RRIRGRPPRLPRPRPRPGIDPRP | 0.607
121 | RRIRGRPPRLPRPRPRPGIFPRP | 0.254
122 | RRIRGRPPRLPRPRPRPGKFPRP | 0.427
123 | RRIRGRPPRLPRPRPRPGKKPRP | -0.0917
124 | RRIRGRPPRLPRPRPRPGKQPRP | 0.0206
125 | RRIRGRPPRLPRPRPRPGMPPRP | 0.406

Row | Sequence | shrunken log2 fold change
126 | RRIRGRPPRLPRPRPRPGQEPRP | 0.974
127 | RRIRGRPPRLPRPRPRPGRTPRP | 0.498
128 | RRIRGRPPRLPRPRPRPGSAPRP | 0.972
129 | RRIRGRPPRLPRPRPRPGSEPRP | 0.864
130 | RRIRGRPPRLPRPRPRPGSFPRP | 0.286
131 | RRIRGRPPRLPRPRPRPGSIPRP | 0.185
132 | RRIRGRPPRLPRPRPRPGSRPRP | 0.565
133 | RRIRGRPPRLPRPRPRPGTKPRP | 0.652
134 | RRIRGRPPRLPRPRPRPGVRPRP | 0.659
135 | RRIRGRPPRLPRPRPRPGWPPRP | 1.18
136 | RRIRGRPPRLPRPRPRPHAHPRP | 0.895
137 | RRIRGRPPRLPRPRPRPHFHPRP | 0.603
138 | RRIRGRPPRLPRPRPRPHGAPRP | -0.00969
139 | RRIRGRPPRLPRPRPRPHGFPRP | 0.422
140 | RRIRGRPPRLPRPRPRPHHHPRP | -0.139
141 | RRIRGRPPRLPRPRPRPHHTPRP | -0.12
142 | RRIRGRPPRLPRPRPRPHIFPRP | 0.224
143 | RRIRGRPPRLPRPRPRPHKAPRP | -0.0636
144 | RRIRGRPPRLPRPRPRPHKPPRP | 0.388
145 | RRIRGRPPRLPRPRPRPHLSPRP | 0.283
146 | RRIRGRPPRLPRPRPRPHMHPRP | 0.448
147 | RRIRGRPPRLPRPRPRPHMKPRP | 0.103
148 | RRIRGRPPRLPRPRPRPHMRPRP | 0.997
149 | RRIRGRPPRLPRPRPRPHNDPRP | 0.0426
150 | RRIRGRPPRLPRPRPRPHNWPRP | 0.18
